Measurements from the supplement of paper PMC10065799, “High-throughput profiling of sequence recognition by tyrosine kinases and SH2 domains using bacterial peptide display” (eLife, 2023).

Experiments:
FGFR1 = FGFR1 (UniProt P11362); experiment: phosphorylation enrichment, bacterial display (enrichment ratio); higher = better substrate or ligand; peptides without Tyr show the background
c-Abl (mouse) = experiment: as above
AncSZ = experiment: as above
Fer (mouse) = experiment: as above
EPHB2 = EPHB2 (UniProt P29323); experiment: as above
Jak2 = Jak2 (UniProt O60674); experiment: as above
c-Src = experiment: as above
Hck = Hck (UniProt P08631); experiment: as above
Chain of Hck (P08631 whole entry, looked up): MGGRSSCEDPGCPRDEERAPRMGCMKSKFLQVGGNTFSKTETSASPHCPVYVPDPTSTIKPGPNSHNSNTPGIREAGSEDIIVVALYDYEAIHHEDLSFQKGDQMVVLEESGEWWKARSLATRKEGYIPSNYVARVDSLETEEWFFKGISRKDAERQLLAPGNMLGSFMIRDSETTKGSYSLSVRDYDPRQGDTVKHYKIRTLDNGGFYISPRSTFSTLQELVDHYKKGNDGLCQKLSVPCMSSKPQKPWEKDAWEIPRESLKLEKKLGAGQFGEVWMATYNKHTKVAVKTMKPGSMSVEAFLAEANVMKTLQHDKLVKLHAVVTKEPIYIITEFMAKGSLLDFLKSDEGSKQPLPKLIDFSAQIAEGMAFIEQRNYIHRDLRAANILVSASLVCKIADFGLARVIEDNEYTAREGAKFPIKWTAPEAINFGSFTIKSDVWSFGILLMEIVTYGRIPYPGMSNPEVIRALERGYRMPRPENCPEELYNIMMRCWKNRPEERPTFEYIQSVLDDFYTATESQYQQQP

Fes = Fes (UniProt P07332); experiment: as above
Chain of Fes (P07332 whole entry, looked up): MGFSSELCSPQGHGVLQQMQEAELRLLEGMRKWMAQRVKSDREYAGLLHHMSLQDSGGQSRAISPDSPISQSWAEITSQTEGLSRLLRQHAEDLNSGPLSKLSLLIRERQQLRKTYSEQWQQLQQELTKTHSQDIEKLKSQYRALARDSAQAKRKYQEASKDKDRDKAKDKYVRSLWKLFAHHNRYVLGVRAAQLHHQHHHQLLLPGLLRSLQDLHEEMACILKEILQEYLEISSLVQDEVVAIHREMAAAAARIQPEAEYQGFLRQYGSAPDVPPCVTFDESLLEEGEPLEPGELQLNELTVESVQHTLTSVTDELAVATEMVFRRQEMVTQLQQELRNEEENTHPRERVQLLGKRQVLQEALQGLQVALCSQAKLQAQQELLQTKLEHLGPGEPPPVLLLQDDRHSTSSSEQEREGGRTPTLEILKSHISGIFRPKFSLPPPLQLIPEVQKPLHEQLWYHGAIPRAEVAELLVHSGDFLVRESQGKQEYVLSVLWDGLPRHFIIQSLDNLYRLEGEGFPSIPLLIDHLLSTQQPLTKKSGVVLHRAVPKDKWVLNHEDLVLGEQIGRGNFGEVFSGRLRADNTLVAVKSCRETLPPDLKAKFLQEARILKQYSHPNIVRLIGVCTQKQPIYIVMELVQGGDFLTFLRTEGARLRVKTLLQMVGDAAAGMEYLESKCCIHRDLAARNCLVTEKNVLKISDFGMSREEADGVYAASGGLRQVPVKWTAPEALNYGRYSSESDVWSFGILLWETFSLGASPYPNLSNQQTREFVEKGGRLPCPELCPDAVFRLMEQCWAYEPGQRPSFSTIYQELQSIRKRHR

FGFR3 = FGFR3 (UniProt P22607); experiment: as above
EPHB1 = EPHB1 (UniProt P54762); experiment: as above
Chain of EPHB1 (P54762 whole entry, looked up): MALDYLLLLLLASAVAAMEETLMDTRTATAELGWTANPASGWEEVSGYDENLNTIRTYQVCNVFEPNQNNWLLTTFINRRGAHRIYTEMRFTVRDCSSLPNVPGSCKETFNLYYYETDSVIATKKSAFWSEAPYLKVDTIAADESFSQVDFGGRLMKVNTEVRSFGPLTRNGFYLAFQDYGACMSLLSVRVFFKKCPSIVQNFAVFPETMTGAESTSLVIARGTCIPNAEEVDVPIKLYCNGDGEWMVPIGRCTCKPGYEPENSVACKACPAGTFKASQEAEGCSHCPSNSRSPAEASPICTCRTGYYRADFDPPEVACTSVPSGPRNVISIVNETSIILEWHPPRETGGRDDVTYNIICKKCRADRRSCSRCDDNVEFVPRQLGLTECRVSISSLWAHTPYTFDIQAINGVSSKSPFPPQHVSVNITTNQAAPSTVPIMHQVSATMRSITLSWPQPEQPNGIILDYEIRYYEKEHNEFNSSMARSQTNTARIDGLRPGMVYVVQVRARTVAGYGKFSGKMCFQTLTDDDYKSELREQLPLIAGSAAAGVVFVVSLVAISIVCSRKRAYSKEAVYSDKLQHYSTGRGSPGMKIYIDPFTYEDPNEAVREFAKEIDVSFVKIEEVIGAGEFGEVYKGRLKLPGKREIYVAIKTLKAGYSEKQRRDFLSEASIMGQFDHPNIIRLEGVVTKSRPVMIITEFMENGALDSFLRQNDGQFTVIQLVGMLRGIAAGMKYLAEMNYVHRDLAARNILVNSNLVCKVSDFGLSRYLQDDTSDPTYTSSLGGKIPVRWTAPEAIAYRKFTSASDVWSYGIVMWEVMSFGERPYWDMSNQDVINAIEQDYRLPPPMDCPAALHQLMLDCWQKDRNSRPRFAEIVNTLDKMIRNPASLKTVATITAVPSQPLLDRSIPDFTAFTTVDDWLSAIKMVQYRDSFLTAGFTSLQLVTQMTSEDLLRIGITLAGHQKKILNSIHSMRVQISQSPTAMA

MERTK = MERTK (UniProt Q12866); experiment: as above
Chain of MERTK (Q12866 whole entry, looked up): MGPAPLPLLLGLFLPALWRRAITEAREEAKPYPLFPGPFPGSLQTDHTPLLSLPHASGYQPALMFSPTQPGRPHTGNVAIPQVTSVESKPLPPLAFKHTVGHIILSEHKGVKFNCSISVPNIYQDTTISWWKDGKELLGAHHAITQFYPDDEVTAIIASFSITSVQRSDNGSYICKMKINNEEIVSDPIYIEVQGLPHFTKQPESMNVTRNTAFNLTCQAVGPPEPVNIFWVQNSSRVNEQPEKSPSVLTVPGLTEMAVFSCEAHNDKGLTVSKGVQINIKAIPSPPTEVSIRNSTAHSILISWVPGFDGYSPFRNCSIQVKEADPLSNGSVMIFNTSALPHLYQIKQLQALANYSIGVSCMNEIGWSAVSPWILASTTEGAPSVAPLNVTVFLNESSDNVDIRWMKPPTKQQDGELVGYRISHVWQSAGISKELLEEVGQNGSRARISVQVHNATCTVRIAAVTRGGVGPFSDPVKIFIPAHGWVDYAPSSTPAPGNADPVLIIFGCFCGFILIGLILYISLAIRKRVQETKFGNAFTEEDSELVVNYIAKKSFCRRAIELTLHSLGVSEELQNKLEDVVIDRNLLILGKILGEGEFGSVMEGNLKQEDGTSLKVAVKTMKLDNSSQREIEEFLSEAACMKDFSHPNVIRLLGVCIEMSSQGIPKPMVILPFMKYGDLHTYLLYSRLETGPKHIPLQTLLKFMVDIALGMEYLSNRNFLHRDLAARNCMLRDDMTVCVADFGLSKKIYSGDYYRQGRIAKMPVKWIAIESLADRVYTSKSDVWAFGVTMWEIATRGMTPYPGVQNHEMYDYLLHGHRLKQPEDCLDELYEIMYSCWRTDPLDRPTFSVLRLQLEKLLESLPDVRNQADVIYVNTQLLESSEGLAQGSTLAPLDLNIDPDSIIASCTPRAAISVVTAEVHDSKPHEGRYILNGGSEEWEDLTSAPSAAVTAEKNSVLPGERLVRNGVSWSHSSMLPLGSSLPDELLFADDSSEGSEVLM

Fyn = Fyn (UniProt P06241); experiment: as above
Chain of Fyn (P06241 whole entry, looked up): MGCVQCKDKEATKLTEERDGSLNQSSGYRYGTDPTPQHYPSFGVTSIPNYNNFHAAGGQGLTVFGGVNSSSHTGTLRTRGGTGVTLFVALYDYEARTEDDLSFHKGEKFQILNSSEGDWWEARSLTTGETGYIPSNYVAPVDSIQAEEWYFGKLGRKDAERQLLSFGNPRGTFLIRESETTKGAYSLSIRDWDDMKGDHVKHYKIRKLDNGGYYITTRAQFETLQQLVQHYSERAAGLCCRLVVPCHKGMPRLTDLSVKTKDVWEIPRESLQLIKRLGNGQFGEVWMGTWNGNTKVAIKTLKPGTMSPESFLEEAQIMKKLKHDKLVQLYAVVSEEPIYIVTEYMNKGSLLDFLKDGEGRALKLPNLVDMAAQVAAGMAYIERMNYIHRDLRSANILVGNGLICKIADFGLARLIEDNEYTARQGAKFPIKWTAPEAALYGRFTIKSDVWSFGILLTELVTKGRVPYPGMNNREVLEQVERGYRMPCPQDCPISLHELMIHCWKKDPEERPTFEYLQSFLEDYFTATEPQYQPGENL

SHP2-C SH2 = experiment: SH2 binding enrichment of the phosphorylated peptide, bacterial display (enrichment ratio); higher = better substrate or ligand; peptides without Tyr show the background
Grb2 SH2 = Grb2 SH2 (UniProt P62993); experiment: as above
Chain of Grb2 SH2 (P62993 whole entry, looked up): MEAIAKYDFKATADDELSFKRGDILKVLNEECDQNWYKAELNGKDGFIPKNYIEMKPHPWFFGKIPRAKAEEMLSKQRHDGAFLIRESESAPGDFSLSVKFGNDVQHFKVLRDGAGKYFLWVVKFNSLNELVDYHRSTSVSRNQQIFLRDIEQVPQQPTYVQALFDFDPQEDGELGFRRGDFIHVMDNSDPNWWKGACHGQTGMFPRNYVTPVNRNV

c-Src SH2 = experiment: as above
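Throughout, for SH2 binding enrichment of the phosphorylated peptide, bacterial display: peptide library displayed on the E. coli surface as eCPX fusions, selected cells deep-sequenced, score is each peptide's frequency after selection divided by its frequency in the input.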
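Throughout, for phosphorylation enrichment, bacterial display: 11-residue human phosphosite peptides and single-mutation variants displayed on the E. coli surface, counted by deep sequencing, each peptide's frequency after selection divided by its frequency in the unselected input library; frequency after pTyr selection over input frequency; kinase dosed for 20-30% of maximal phosphorylation in three min.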

Chain of FGFR1 (P11362 whole entry, looked up): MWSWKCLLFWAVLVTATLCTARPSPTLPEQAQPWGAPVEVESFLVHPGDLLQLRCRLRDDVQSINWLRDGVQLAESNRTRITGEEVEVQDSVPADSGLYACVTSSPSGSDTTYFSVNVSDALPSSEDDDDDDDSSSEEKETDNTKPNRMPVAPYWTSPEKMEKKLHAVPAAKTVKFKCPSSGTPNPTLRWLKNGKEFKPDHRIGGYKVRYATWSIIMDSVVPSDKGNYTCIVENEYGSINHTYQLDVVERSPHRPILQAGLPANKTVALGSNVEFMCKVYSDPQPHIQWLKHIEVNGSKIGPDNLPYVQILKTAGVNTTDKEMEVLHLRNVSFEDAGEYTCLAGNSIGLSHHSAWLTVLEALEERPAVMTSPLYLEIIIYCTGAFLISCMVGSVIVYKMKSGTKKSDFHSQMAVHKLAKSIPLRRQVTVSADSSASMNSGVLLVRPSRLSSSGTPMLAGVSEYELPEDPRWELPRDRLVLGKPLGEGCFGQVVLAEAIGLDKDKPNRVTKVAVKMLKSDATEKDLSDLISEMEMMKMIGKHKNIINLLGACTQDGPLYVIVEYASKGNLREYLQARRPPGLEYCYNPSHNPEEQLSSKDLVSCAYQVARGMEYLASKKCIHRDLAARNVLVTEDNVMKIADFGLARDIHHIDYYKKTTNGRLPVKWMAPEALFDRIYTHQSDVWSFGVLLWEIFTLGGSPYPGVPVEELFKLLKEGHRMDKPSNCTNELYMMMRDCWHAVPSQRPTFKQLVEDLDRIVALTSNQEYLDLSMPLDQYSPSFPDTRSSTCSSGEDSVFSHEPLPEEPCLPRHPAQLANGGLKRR

Row | Sequence | phosphorylation enrichment (FGFR1) | phosphorylation enrichment (c-Abl (mouse)) | phosphorylation enrichment (AncSZ) | phosphorylation enrichment (Fer (mouse)) | phosphorylation enrichment (EPHB2) | phosphorylation enrichment (Jak2) | phosphorylation enrichment (c-Src) | phosphorylation enrichment (Hck) | phosphorylation enrichment (Fes) | phosphorylation enrichment (FGFR3) | phosphorylation enrichment (EPHB1) | phosphorylation enrichment (MERTK) | phosphorylation enrichment (Fyn) | SH2 binding enrichment (SHP2-C SH2) | SH2 binding enrichment (Grb2 SH2) | SH2 binding enrichment (c-Src SH2)
1 | IGSHAYGDQYR [IDH1_Y135_R132S] | 0.45 | 0.576 | 0.583 | 0.374 | 0.419 | 0.554 | 0.43 | 0.342 | 0.619 | 0.517 | 0.497 | 0.406 | 0.464 | 0.521 | 0.848 | 0.433
2 | PFRFIYMAVQH [PTPN11_Y515_Q510P_YF] | 0.463 | 1.27 | 1.09 | 0.563 | 0.737 | 1.18 | 1.26 | 1.11 | 1.01 | 0.726 | 0.741 | 0.527 | 0.732 | 1.02 | 1.02 | 0.872
3 | KSVVTYSPTTG [ITGB3BP_Y32_I30V] | 0.375 | 0.618 | 0.478 | 0.369 | 0.416 | 0.489 | 0.431 | 0.372 | 0.527 | 0.442 | 0.427 | 0.423 | 0.401 | 0.668 | 0.814 | 0.397
4 | ISKQEYDEAGP [ACTC1_Y364] | 0.522 | 0.79 | 1.28 | 0.627 | 0.741 | 1.31 | 0.598 | 0.616 | 1.29 | 0.819 | 0.65 | 0.518 | 0.602 | 0.718 | 0.921 | 6.16
5 | QYKDKYLAKHN [CASK_Y712] | 0.526 | 0.458 | 0.401 | 0.349 | 0.402 | 0.605 | 0.308 | 0.207 | 0.927 | 0.663 | 0.501 | 0.283 | 0.436 | 0.798 | 0.648 | 1.02
6 | GIYKDYYRYNF [PLA2G2D_Y85_S80G] | 12.2 | 5.76 | 1.4 | 0.938 | 5.13 | 7.91 | 4.78 | 3.32 | 0.805 | 9.59 | 5.44 | 4.72 | 5 | 1.31 | 1.13 | 1.03
7 | GRRNTYFASIA [ACADM_Y352_YF] | 0.439 | 0.588 | 0.722 | 0.481 | 0.423 | 0.5 | 0.615 | 0.423 | 0.556 | 0.507 | 0.346 | 0.466 | 0.551 | 0.528 | 0.696 | 0.356
8 | VDGSLYETHPQ [HK1_Y417_K418E] | 0.441 | 0.541 | 1.26 | 9.06 | 2.37 | 0.653 | 0.918 | 2.09 | 0.861 | 0.607 | 1.5 | 1.18 | 1.13 | 0.661 | 0.828 | 0.503
9 | SQDSAYHSGIQ [FLG_Y3940] | 0.4 | 0.506 | 0.557 | 0.404 | 0.366 | 0.492 | 0.386 | 0.678 | 0.614 | 0.512 | 0.532 | 0.489 | 0.421 | 0.544 | 0.899 | 0.529
10 | SIKDKYVTAFF [KCNH2_Y611_L615F_YF] | 0.403 | 0.635 | 0.582 | 0.483 | 0.44 | 0.526 | 0.372 | 0.4 | 0.731 | 0.489 | 0.363 | 0.369 | 0.399 | 0.848 | 1.04 | 0.589
11 | FCVVRYCWLRR [MPZ_Y181_Y177C] | 0.552 | 0.773 | 0.718 | 0.404 | 0.603 | 0.586 | 0.738 | 0.577 | 0.76 | 0.709 | 0.45 | 0.656 | 0.606 | 0.515 | 0.581 | 0.539
12 | KDFETYQPFQN [CTNND2_Y1157_YF] | 0.54 | 0.741 | 1.13 | 0.612 | 0.786 | 0.869 | 4.18 | 5.76 | 1.02 | 0.603 | 0.69 | 0.463 | 4.76 | 0.699 | 0.948 | 0.544
13 | RAEAQYLLVSN [LRIG1_Y1054] | 2.61 | 0.665 | 0.897 | 0.43 | 0.551 | 0.933 | 0.648 | 0.493 | 0.761 | 1.78 | 0.639 | 0.681 | 0.466 | 0.62 | 0.884 | 0.431
14 | PGLSSYGVPAS [FLNB_Y1530] | 0.56 | 0.913 | 0.677 | 0.408 | 0.435 | 0.599 | 0.474 | 0.482 | 0.738 | 0.526 | 0.543 | 0.497 | 0.661 | 0.658 | 0.898 | 0.545
15 | WLQKLYNNFVN [MYO5C_Y526] | 0.459 | 0.874 | 1.25 | 0.483 | 0.57 | 1 | 0.501 | 0.655 | 1.4 | 0.774 | 0.528 | 0.429 | 0.472 | 1.18 | 1.31 | 1.28
16 | GRQVIYTENER [GPR143_Y231_G229V] | 0.435 | 0.537 | 0.531 | 0.382 | 0.41 | 0.552 | 0.513 | 0.462 | 0.89 | 0.479 | 0.441 | 0.43 | 0.407 | 0.681 | 0.729 | 0.558
17 | IDQDKYAVRFI [FLNA_Y2388] | 0.425 | 0.566 | 0.78 | 0.473 | 0.458 | 0.635 | 0.393 | 0.524 | 0.787 | 0.545 | 0.459 | 0.379 | 0.488 | 0.696 | 0.865 | 0.54

Row | Sequence | phosphorylation enrichment (FGFR1) | phosphorylation enrichment (c-Abl (mouse)) | phosphorylation enrichment (AncSZ) | phosphorylation enrichment (Fer (mouse)) | phosphorylation enrichment (EPHB2) | phosphorylation enrichment (Jak2) | phosphorylation enrichment (c-Src) | phosphorylation enrichment (Hck) | phosphorylation enrichment (Fes) | phosphorylation enrichment (FGFR3) | phosphorylation enrichment (EPHB1) | phosphorylation enrichment (MERTK) | phosphorylation enrichment (Fyn) | SH2 binding enrichment (SHP2-C SH2) | SH2 binding enrichment (Grb2 SH2) | SH2 binding enrichment (c-Src SH2)
18 | GIYEDYVEGLR [MYL6_Y89_T85I] | 0.965 | 0.727 | 1.49 | 6.33 | 6.61 | 0.946 | 4.26 | 3.65 | 1.45 | 0.86 | 5.82 | 1.42 | 6.03 | 0.717 | 0.697 | 0.51
19 | SGIYQYNIAKF [FOXL2_Y83_I84N] | 0.659 | 4.58 | 0.898 | 14.7 | 1.56 | 0.593 | 3.79 | 4.76 | 0.732 | 0.605 | 2.14 | 9.83 | 3.42 | 0.875 | 0.976 | 1.01
20 | ELANLYHHVCM [BICD2_Y538] | 1.57 | 0.982 | 1.17 | 1.77 | 0.708 | 1.23 | 1.47 | 2.17 | 1.05 | 1.49 | 0.666 | 1.24 | 0.869 | 0.597 | 0.673 | 0.783
21 | IKNPQYFSDAC [NTRK1_Y496_E492K] | 0.548 | 0.464 | 0.648 | 0.37 | 0.415 | 0.634 | 0.473 | 0.418 | 0.74 | 0.591 | 0.37 | 0.344 | 0.464 | 0.895 | 0.909 | 0.524
22 | NKKYHYRELPV [ERN2_Y860_H858Y] | 0.316 | 0.515 | 0.456 | 0.32 | 0.278 | 0.379 | 0.32 | 0.29 | 0.502 | 0.345 | 0.361 | 0.28 | 0.296 | 1.12 | 1.17 | 1.06
23 | GRGMPYGGRGD [TGM1_Y312_R307G] | 0.355 | 0.513 | 0.476 | 0.399 | 0.325 | 0.488 | 0.402 | 0.4 | 0.476 | 0.449 | 0.338 | 0.379 | 0.343 | 0.648 | 0.87 | 0.513
24 | VNQSGYTLIRK [ATP6V0A2_Y688_R685Q] | 0.452 | 0.391 | 0.572 | 0.401 | 0.478 | 0.538 | 0.418 | 0.476 | 0.563 | 0.465 | 0.42 | 0.433 | 0.387 | 9.3 | 0.861 | 8.52
25 | CTTNHYNYMCN [TP53_Y234_I232N] | 0.479 | 0.495 | 0.725 | 0.489 | 0.483 | 0.593 | 0.373 | 0.415 | 0.712 | 0.526 | 0.682 | 0.398 | 0.382 | 2.42 | 0.802 | 11
26 | KRIKSYNQEND [RPGRIP1L_Y448_L447S] | 0.396 | 0.454 | 0.436 | 0.416 | 0.341 | 0.466 | 0.409 | 0.33 | 0.53 | 0.395 | 0.442 | 0.43 | 0.358 | 0.681 | 0.711 | 0.503
27 | IEDPYYGNDFD [ACP1_Y133_S137F] | 1.6 | 0.93 | 1.65 | 0.786 | 0.859 | 1.43 | 2.94 | 1.02 | 1.47 | 1.7 | 0.832 | 0.513 | 1.65 | 0.617 | 0.863 | 0.68
28 | VTQEPYELFCE [CBL_Y368_Q367P_YF] | 0.649 | 0.817 | 1.58 | 1.15 | 0.687 | 0.998 | 1.19 | 0.569 | 1.32 | 0.938 | 0.74 | 0.592 | 0.793 | 0.944 | 1.01 | 0.719
29 | SDVCMYRKNTY [SYNE2_Y570_I574T] | 0.429 | 0.684 | 0.76 | 0.401 | 0.519 | 0.67 | 0.377 | 0.487 | 0.905 | 0.695 | 0.477 | 0.403 | 0.405 | 0.592 | 0.796 | 0.47
30 | APAHKYHGGGG [HBD_Y146_L142P] | 0.37 | 0.616 | 0.778 | 0.329 | 0.419 | 0.35 | 0.537 | 0.294 | 0.502 | 0.423 | 0.288 | 0.549 | 0.328 | 0.66 | 0.709 | 0.538
31 | SHSMKYFDTAV [HLA-C_Y31_R30K] | 0.396 | 0.469 | 0.579 | 0.357 | 0.389 | 0.785 | 0.395 | 0.392 | 0.572 | 0.432 | 0.36 | 0.436 | 0.356 | 0.71 | 1.01 | 0.417
32 | VAHAVYQAVLS [SMG1_Y549] | 0.656 | 1.14 | 0.899 | 8.18 | 7.85 | 0.666 | 4.58 | 8.28 | 0.935 | 0.591 | 9.09 | 4.22 | 5.92 | 0.828 | 1.11 | 1.02
33 | INQGPYENHSV [ATP6V1B1_Y462_R465H] | 0.441 | 0.54 | 0.646 | 9.94 | 0.639 | 0.68 | 0.524 | 0.4 | 0.804 | 0.524 | 0.436 | 0.55 | 0.471 | 0.777 | 4.77 | 2.07
